In US20100119516A1 (Eli Lilly, published 2010):

T1: mouse TGFβRII-Fc (recombinant extracellular domain of mouse TGFβRII linked with mouse Fc or heavy chain … (mouse))
T1 construct: also called murine TGFβRII; not shown: mouse Fc or heavy chain constant region
T1 chain: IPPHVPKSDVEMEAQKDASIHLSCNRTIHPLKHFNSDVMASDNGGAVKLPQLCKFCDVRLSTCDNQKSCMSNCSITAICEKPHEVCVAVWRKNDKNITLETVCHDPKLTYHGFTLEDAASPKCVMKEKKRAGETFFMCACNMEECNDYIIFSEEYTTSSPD


What was measured:
[1] = molecular target: T2, native human TGFβRII expressed on the cell surface (human, UniProt P37173 23-567); assay: cell-based or functional assay
[2] = molecular target: T3, soluble recombinant human TGFβRII alkaline phosphatase (TGFβRII-AP) (human, UniProt P37173 23-166); assay: blocking ELISA: TGFβRII-AP binding to coated human TGFβ1
T3 construct: also called TGFβII-AP; not shown: alkaline phosphatase fusion partner
From the text: (§1) At day 10 to 12 post-fusion, the hybridomas are screened for antibody production and specific binding activity of culture supernatants with TGFβRII protein in ELISA-based binding and blocking assays. Specifically, hybridomas producing anti-TGFβRII mAbs are first identified by detection of TGFβRII-bound antibody with a goat anti-human kappa light chain or anti-mouse IgG horse radish peroxidase (HRP) conjugated antibody according to the following procedure. Human TGFβRII-Fc or mouse TGFβRII-Fc is coated at 100 ng/well on 96 microtiter plates at 4° C. overnight. The coated plates are blocked with the blocking buffer (PBS 0.05% TWEEN® 20 containing 5% dry milk) at room temperature for 2 hours. Hybridoma supernatants or purified antibodies are diluted in PBS with 2% bovine serum albumin (BSA) and 0.05% TWEEN® 20 (ELISA buffer) and incubated in TGFβRII-coated, 96-well, microtiter plates for 30 minutes. Plates are washed with the ELISA buffer and incubated with goat anti-human kappa light chain or anti-mouse IgG-HRP conjugate for 30 minutes. TMB (3,3′,5,5′-tetra-methylbenzidine) substrate is used for color development following the manufacturer's instructions. The absorbance at 450 nanometers (nm) is read for quantification of binding activity of antibodies. For identification of hybridomas producing neutralizing anti-TGFβRII mAbs, an ELISA based blocking assay is performed according to the following procedure. TGFβ1, TGFβ2, or TGFβ3 is coated at 200 ng per well on 96-well plates, and wells are then blocked with the blocking buffer. […] The absorbance at 405 nm is read for quantification of TGFβRII-binding to TGFβ1, TGFβ2, and TGFβ3. Optical density (OD) values are read on a microtiter plate reader (Molecular Devices Corp., Sunnyvale, Calif.).
(§2) The binding and blocking activity of purified anti-TGFβRII mAbs is determined in ELISA as described in “Generation of anti-TGFβRII mAbs” above. ED₅₀ and IC₅₀ of the antibodies are analyzed using GraphPad Prism® software 3.03 (GraphPad Software Inc., San Diego, Calif.).

[3] = molecular target: T3, soluble recombinant human TGFβRII …; assay: blocking ELISA: TGFβRII-AP binding to coated human TGFβ2
From the text: as §1, §2

[4] = molecular target: T3, soluble recombinant human TGFβRII …; assay: blocking ELISA: TGFβRII-AP binding to coated human TGFβ3
From the text: as §1, §2

[5] = molecular target: T4, human TGFβRII-Fc (recombinant extracellular domain of human TGFβRII linked with human Fc or heavy chain … (human, UniProt P37173 23-166)); assay: binding ELISA on coated human TGFβRII-Fc (given as ED50)
T4 construct: not shown: human Fc or heavy chain constant region
From the text: as §1, §2

[6] = molecular target: T4, human TGFβRII-Fc (recombinant …); assay: SPR (Biacore), human TGFβRII ECD-Fc immobilised, room temperature
Method: (§3) Kinetic analyses of the mAbs are performed by immobilization of a fusion protein of recombinant extracellular domain of either mouse TGFβRII (SEQ ID NO: 51), or the extracellular domain of human TGFβRII (SEQ ID NO: 52) linked, respectively, with either mouse or human Fc or heavy chain constant region, onto a sensor surface at a concentration of from 5 to 100 nM.

[7] = molecular target: T4, human TGFβRII-Fc (recombinant …); assay: SPR (BIAcore 2000), human TGFβRII ECD-Fc immobilised, room temperature
Method: as §3

[8] = molecular target: T2, native human TGFβRII expressed on the …; assay: flow cytometry on 293-human TGFβRII transfectant cells; MFI against isotype control
Method: (§4) Binding activity of anti-human TGFβRII mAb TGF1 and fluorescein isothiocyanate (FITC)-labeled goat anti-human IgG antibody may be determined by a staining assay with 293-human TGFβRII transfectant cells and human carcinoma cells. Specifically, aliquots of transfectant cells, carcinoma cells, spleen cells, or lymph node cells are harvested from subconfluent cultures and incubated with fluorescein-labeled or unlabeled primary antibodies to desired molecules in PBS with 1% BSA (staining buffer) for 1 hour on ice. A matched IgG isotype is used as a negative control. Cells are washed twice with the staining buffer and then incubated with FITC, Phycoerythrin (PE) or Alxas Red labeled species-specific secondary antibody to primary antibody (BioSource International, Camarillo, Calif.) in the buffer for 30 min on ice. Cells are washed as above and analyzed on a flow cytometer. […] The mean fluorescent intensity units (MFIU) are calculated as the mean log fluorescence multiplied by the percentage of positive population. The mean fluorescent intensity ratio (MFIR) is calculated to quantitate relative expression levels of TGFβRII in the cell lines. The MFIR is the mean fluorescence intensity (MFI) of cells stained with TGFβRII specific mAb divided by the MFI of cells stained with an isotype control antibody.

[9] = molecular target: T2, native human TGFβRII expressed on the …; assay: flow cytometry on MDA-MB-231 human breast carcinoma cells; MFI against isotype control
Method: as §4

[10] = molecular target: T1, mouse TGFβRII-Fc (recombinant …); assay: ELISA

T4 sequence (P37173 23-166): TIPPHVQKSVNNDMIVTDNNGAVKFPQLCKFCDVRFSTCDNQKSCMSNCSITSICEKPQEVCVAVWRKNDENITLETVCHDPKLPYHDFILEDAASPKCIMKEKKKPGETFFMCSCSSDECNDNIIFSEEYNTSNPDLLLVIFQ
T3 sequence (P37173 23-166): as above
T2 sequence (P37173 23-567): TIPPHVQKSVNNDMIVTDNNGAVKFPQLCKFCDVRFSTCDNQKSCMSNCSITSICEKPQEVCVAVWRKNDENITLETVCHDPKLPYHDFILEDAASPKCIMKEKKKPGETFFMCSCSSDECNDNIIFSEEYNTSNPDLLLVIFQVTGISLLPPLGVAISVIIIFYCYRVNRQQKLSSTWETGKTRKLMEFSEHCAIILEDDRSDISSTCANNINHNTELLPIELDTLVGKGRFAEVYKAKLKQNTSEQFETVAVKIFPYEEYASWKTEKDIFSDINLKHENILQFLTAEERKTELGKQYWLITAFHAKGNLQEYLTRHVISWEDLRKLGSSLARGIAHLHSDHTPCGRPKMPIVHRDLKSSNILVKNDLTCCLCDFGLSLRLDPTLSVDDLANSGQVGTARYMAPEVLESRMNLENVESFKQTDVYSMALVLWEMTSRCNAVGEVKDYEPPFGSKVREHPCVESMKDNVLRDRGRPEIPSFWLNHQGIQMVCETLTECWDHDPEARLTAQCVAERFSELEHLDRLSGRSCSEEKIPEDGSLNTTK

Row | Binder | IC50 in the p-Smad2 inhibition assay (TGFβ-induced phosphorylation of Smad2, MDA-MB-231 cells, Western blot) [1] [nM] | IC50 [2] [nM] | IC50 [3] [nM] | IC50 [4] [nM] | EC50 [5] [nM] | Kd [6] [nM] | Kd [7] [nM] | koff [7] [s⁻¹] | kon [7] [M⁻¹ s⁻¹] | MFIR (mean fluorescent intensity ratio) [8] | MFIR (mean fluorescent intensity ratio) [9] | binding result [10] | IC50 in the p-Smad2 inhibition assay (TGFβ-induced phosphorylation of Smad2) [1] [nM]
1 | anti-human TGFβRII mAb TGF1 (antibody, human IgG1, kappa, V domains shown, Human antibody from human-immunoglobulin transgenic mice, engineered as full-length human IgG1 with kappa light chain) VH: QLQVQESGPGLVKPSETLSLTCTVSGGSISNSYFSWGWIRQPPGKGLEWIGSFYYGEKTYYNPSLKSRATISIDTSKSQFSLKLSSVTAADTAVYYCPRGPTMIRGVIDSWGQGTLVTVSS VL: EIVLTQSPATLSLSPGERATLSCRASQSVRSYLAWYQQKPGQAPRLLIYDASNRATGIPARFSGSGSGTDFTLTISSLEPEDFAVYYCQQRSNWPPTFGQGTKVEIKG | 5 | 0.12 | 0.54 | 0.19 | 0.059 | 0.011 | 0.011 | 1.7e-05 | 1.5e+06 | 46 | 209 |  | 
2 | anti-human TGFβRII mAb TGF2 (antibody, V domains shown, Human IgG1 with kappa light chain) VH: QVQLVQSGAAVKKPGESLKISCKGSGYRFTSYWIGWVRQMPGKGLEWMGIIYPGDSDTRYSPSFQGQVTISAGKSISTAYLQWSSLKASDTAMYYCARHGRGYNGYEGAFDIWGQGTMVTVSS VL: DIQMTQSPSSLSASVGDRVTITCRASQGISSWLAWYQQKPEKAPKSLIYAASSLQSGVPSRFSGSGSGTDFTLTISSLQPEDFATYYCQQYNSYPWTFGQGTKVEIKG |  | 0.19 | 0.42 | 0.25 | 0.048 | 0.078 | 0.078 | 3.4e-05 | 430000 |  |  | binds | < 25
3 | anti-human TGFβRII mAb TGF3 (antibody, human IgG1, kappa, V domains shown, Human IgG1 with kappa light chain) VH: QLQLQESGPGLVKPSETLSLTCTVSGGSISSSSYSWGWIRQPPGKGLEWIGSFYYSGITYYSPSLKSRIIISEDTSKNQFSLKLSSVTAADTAVYYCASGFTMIRGALDYWGQGTLVTVSS VL: EIVLTQSPATLSLSPGERATLSCRASQSVRSFLAWYQQKPGQAPRLLIYDASNRATGIPARFSGSGSGTDFTLTISSLEPEDFAVYYCQQRSNWPPTFGQGTKVEIKG |  | 0.1 | 0.41 | 0.13 | 0.031 | 0.019 | 0.019 | 2.7e-05 | 1.4e+06 |  |  | binds | < 25
